According to patent US20080081903A1, “METHOD FOR SCREENING TRANSCRIPTIONAL COREGULATORY PROTEINS OF TRANSCRIPTION FACTORS, AND ANDROGEN RECEPTOR TRANSCRIPTIONAL COREGULATORY PROTEINS AS TARGETS FOR ANDROGEN RECEPTOR-DEPENDENT DISEASES” (NEW YORK UNIVERSITY, priority 2001, published 2008):

Tests used:
[1] = target: T1, androgen receptor transcriptional activation (Homo sapiens, UniProt P10275); assay: Transient transfection, AR-responsive luciferase reporter assay; assay type: cell-based; conditions: overexpressed in cultured mammalian cells
T1 construct: The pcDNA3:hAR expression plasmid was used to produce full length human AR; expressed in transfected cells; host or cells: HeLa and PC-3 (both AR deficient)
T1 sequence (P10275 1-920): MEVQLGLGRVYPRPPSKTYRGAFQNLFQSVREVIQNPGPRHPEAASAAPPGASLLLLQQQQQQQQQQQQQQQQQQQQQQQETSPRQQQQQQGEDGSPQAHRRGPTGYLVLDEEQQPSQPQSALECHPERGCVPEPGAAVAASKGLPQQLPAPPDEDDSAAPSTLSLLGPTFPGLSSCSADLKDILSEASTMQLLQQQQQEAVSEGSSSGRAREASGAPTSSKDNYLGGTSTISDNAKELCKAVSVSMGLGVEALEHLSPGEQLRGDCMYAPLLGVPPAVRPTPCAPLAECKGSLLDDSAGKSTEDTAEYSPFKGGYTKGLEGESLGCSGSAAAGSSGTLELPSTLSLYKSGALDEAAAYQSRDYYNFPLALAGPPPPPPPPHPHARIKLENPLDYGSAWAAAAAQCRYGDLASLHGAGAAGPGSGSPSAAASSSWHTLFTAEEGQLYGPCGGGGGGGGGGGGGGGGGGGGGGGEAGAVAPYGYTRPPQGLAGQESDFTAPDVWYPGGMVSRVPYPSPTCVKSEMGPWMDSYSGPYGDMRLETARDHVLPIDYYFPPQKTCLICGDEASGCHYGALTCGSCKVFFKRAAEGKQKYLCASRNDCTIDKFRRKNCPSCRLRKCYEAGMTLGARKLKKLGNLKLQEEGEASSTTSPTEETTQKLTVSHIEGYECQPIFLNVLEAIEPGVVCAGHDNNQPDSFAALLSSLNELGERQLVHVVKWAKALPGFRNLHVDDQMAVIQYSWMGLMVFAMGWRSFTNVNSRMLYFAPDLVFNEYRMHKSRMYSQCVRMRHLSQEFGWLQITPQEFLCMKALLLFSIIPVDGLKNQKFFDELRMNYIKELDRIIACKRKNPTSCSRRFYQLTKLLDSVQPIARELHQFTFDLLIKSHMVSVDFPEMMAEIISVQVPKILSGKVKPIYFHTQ
From the text: The two ART-27 derivatives used in the mammalian cell culture experiments were constructed as follows: using EcoRI-XhoI, ART-27 was subcloned from pEG202:ART-27 into a pcDNA3 vector that has an N-terminal HA epitope (pCDNA3-HA) in the same reading frame as the LexA moiety in pEG202 with respect to the EcoRI site; ART-271-127 was subcloned from pEG202:ART-271-127 into pcDNA3-HA, pJG4-5:Sp183-262, pJG4-5:Sp1263-542, pJG4-5:TAF130270-700, and pJG4-5:CREB3-296 were provided by N. Tanese (New York University School of Medicine, New York). pJG4-5:SRC-1374-800 was provided by H. Samuels (New York University School of Medicine, New York). pJG4-5:GR107-237 was previously described (Hittelman et al., 1999). The pJK103 reporter plasmid, which contains a single LexA operator linked to β-galactosidase, was used in all activity assays of the LexA fusion proteins and in the modified two-hybrid assay. The pΔ4X-LALO-luciferase reporter plasmid, which contains four LexA operators upstream of a minimal Drosophila alcohol dehydrogenase promoter linked to luciferase, was used in mammalian activity assays to monitor the intrinsic transcriptional activity of the LexA fusion proteins. […]

[2] = target: T2, androgen receptor ligand-binding domain (579-901) (Rattus norvegicus, UniProt P15207); assay: Modified yeast two-hybrid specificity panel; conditions: absence or presence of hormone
T2 construct: expressed in transfected cells; host or cells: yeast (modified two-hybrid assay)
T2 sequence (P15207 579-901): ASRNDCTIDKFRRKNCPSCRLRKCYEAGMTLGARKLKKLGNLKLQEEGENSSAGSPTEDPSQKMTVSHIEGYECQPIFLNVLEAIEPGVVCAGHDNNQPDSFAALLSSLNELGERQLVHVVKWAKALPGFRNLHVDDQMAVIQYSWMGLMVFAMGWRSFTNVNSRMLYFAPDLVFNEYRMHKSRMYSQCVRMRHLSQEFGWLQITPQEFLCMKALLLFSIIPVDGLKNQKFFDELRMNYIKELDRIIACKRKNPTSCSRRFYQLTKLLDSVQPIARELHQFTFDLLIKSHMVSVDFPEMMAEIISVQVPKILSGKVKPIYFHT

androgen receptor-dependent transactivation [1]: increase | interaction with androgen receptor ligand binding domain [2]: No interaction
B1: ART-5: Androgen Receptor Trapped protein, SEQ ID NO:4, unknown function, represented in EST database (protein)
chain: MHNPDGSASPTADPGSELQTLGQAARRPPPPRAGHDAPRRTRPSARKPLSCFSRRPMPTREPPKTRGSRGHLHTHPPGPGPPLQGLAPRGLKTSAPRPPCQPQPGPHKAKTKKIVFEDELLSQALLGAKKPIGAIPKGHKPRPHPVPDYELKYPPVSSERERSRYVAVFQDQYGEFLELQHEVGCAQAKLRQLEALLSSLPPPQSQKEAQVAARVWREFEMKRMDPGFLDKQARCHYLKGKLRHLKTQIQKFDDQGDSEGSVYF
modifications: Human
